We go through 1 molecule from PMC6440994, “Human RAD51 paralogue SWSAP1 fosters RAD51 filament by regulating the anti-recombinase FIGNL1 AAA+ ATPase” (Nature Communications, 2019).

The test has as its target T1, RAD51 (protein of the in vitro assays) (UniProt Q06609 1-339).
T1 sequence (looked up): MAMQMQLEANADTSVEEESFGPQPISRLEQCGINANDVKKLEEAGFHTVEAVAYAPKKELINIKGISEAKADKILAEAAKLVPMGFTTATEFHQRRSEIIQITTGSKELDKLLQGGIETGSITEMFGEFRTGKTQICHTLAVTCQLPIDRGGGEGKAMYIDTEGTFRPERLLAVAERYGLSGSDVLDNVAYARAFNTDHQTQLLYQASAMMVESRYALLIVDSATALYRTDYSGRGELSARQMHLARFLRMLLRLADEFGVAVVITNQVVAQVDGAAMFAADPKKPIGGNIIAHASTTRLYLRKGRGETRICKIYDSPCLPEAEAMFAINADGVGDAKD
Nature of the test: cell-based or functional assay.

B1: FIGNL1ΔN-EE (F295E, A298E) (domain or fragment, human, UniProt Q6PIW4 285-674, looked up)
chain: GPKEDSSLPTEKTEKEQLWVDQQKKYHQPQRASGSSYGGVKKSLGASRSRGILGKFVPPIPKQDGGEQNGGMQCKPYGAGPTEPAHPVDERLKNLEPKMIELIMNEIMDHGPPVNWEDIAGVEFAKATIKEIVVWPMLRPDIFTGLRGPPKGILLFGPPGTGKTLIGKCIASQSGATFFSISASSLTSKWVGEGEKMVRALFAVARCQQPAVIFIDEIDSLLSQRGDGEHESSRRIKTEFLVQLDGATTSSEDRILVVGATNRPQEIDEAARRRLVKRLYIPLPEASARKQIVINLMSKEQCCLSEEEIEQIVQQSDAFSGADMTQLCREASLGPIRSLQTADIATITPDQVRPIAYIDFENAFRTVRPSVSPKDLELYENWNKTFGCGK
Consider B1, for which the “activity to dissociate RAD51 from ssDNA relative to wild-type FIGNL1ΔN (0.2 µM protein)” value stood at 3.2 fold decrease.
